Assay results from patent publication US20260207704A1, “STAPLED PEPTIDES AND METHODS THEREOF” (priority 2022, published 2026).
*1 amine or outer side, *2 acyl side, *3 side chain or, on linkers, in order; H or OH if unused. Bridges are numbered along the chain shown (N, C = ends). Primed or numbered codes have the meaning given here. [ ]: non-standard residue; d: D form. The star is where a group is joined. PyrS2(6) = (S)-3-amino-1-((pent-4-en-1-yloxy)carbonyl)pyrrolidine-3-carboxylic acid, stapled with another olefin-containing amino acid residue through the olefin group, O=C(OCCCC=[*:3])N1CC[C@@](N[*:1])(C(=O)[*:2])C1; B5(4) = 2-amino-2-(pent-4-en-1-yl)hept-6-enoic acid, stapled through each of its two olefin groups with other olefin-containing amino acid residues, O=C(C(CCCC=[*:3])(CCCC=[*:4])N[*:1])[*:2]; PyrS2″ = (S)-3-amino-1-((pent-4-en-1-yloxy)carbonyl)pyrrolidine-3-carboxylic acid (olefin stapling residue), C=CCCCOC(=O)N1CC[C@@](N[*:1])(C(=O)[*:2])C1; PyrS2 = (S)-3-amino-1-((pent-4-en-1-yloxy)carbonyl)pyrrolidine-3-carboxylic acid, olefin staple residue, C=CCCCOC(=O)N1CC[C@@](N[*:1])(C(=O)[*:2])C1; PyrS2(3) = (S)-3-amino-1-((pent-4-en-1-yloxy)carbonyl)pyrrolidine-3-carboxylic acid, olefin residue, C=CCCCOC(=O)N1CC[C@@](N[*:1])(C(=O)[*:2])C1; PyrS2(5) = (S)-3-amino-1-((pent-4-en-1-yloxy)carbonyl)pyrrolidine-3-carboxylic acid, C=CCCCOC(=O)N1CC[C@@](N[*:1])(C(=O)[*:2])C1; B5(5) = 2-amino-2-(pent-4-en-1-yl)hept-6-enoic acid (two olefin arms), C=CCCCC(CCCC=C)(N[*:1])C(=O)[*:2]; B5(3) = 2-amino-2-(pent-4-en-1-yl)hept-6-enoic acid, two olefin arms, C=CCCCC(CCCC=C)(N[*:1])C(=O)[*:2]; TriAzLys″ = azidolysine residue closed into triazole staple, O=C([C@H](CCCCn1cc([*:3])nn1)N[*:1])[*:2]; Me2Mal = 2-carboxy-2-methylpropanoyl group on the Lys side chain, CC(C)(C(=O)O)C(=O)*; 2F3MeF″ = aromatic residue, Cc1cccc(C[C@H](N[*:1])C(=O)[*:2])c1F; Phe(3-COOH) = N[C@@H](Cc1cccc(C(=O)O)c1)C(=O)O; 2F3MeF = Cc1cccc(C[C@H](N[*:1])C(=O)[*:2])c1F; Phe(2-Cl) = N[C@@H](Cc1ccccc1Cl)C(=O)O; Bta = N[C@@H](Cc1csc2ccccc12)C(=O)O; αAllylPro = C=CC[C@@]1(C(=O)O)CCCN1; BztA = aromatic amino acid residue; tBuAla = CC(C)(C)C[C@H](N)C(=O)O; 3Thi = N[C@@H](Cc1ccsc1)C(=O)O; Suc = O=C(CCC(=O)[*:2])[*:1]; 2F3MeF(4) = Phe analogue; Nle = CCCC[C@H](N)C(=O)O; Orn = NCCC[C@H](N)C(=O)O; TfeGA = not defined here; AsnR = not defined here; GlnR = not defined here; sAla = not defined here; PL3 = not defined here; B5 = not defined here; Aib = CC(C)(N)C(=O)O

Target: beta-catenin (human)
Sequence (B6V8E6 146-665 limits assumed): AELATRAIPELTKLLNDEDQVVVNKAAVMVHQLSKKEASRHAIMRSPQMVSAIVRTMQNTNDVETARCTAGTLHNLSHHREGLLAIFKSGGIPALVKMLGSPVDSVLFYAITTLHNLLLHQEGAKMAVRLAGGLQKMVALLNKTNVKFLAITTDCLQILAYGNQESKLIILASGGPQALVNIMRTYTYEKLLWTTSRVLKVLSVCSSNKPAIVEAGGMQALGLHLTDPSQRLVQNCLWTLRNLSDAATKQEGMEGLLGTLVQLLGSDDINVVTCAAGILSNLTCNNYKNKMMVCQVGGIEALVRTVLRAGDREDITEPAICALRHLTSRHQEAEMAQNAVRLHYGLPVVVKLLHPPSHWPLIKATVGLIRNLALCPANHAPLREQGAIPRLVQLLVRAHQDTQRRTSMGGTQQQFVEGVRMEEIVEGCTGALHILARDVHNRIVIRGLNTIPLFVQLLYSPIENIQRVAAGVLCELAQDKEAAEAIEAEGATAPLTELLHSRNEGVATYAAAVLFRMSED
Experiment: cell-based or functional assay

| Binder | NanoBRET Abs IC50 | NanoBRET Abs IC50 (bin >3.0 uM) |
| --- | --- | --- |
| Ac-[αAllylPro]D[tBuAla][B5(4)]D[TfeGA]VAFK[PyrS2″][2F3MeF][Bta][GlnR]A-NH2 (bridge 10-14; not fully specified (bridges); reading uncertain; also: Lys*3 and GlnR*3 marked *3) [I-124] | > 10000 nM | – |
| Ac-[αAllylPro]D[tBuAla][B5(4)]D[TfeGA]LAFK[PyrS2″][2F3MeF][Bta][GlnR]A-NH2 (bridge 10-14; not fully specified (bridges); reading uncertain; also: Lys*3 and GlnR*3 marked *3) [I-122] | > 10000 nM | – |

Results, then the binder that gave them:

| NanoBRET Abs IC50 | NanoBRET Abs IC50 (bin >3.0 uM) | Binder |
| --- | --- | --- |
| > 10000 nM | – | Ac-[αAllylPro]D[tBuAla][B5(4)]D[TfeGA]VAFK[PyrS2″][2F3MeF][Bta][GlnR]A-NH2 (bridge 10-14; not fully specified (bridges); reading uncertain; also: Lys*3 and GlnR*3 marked *3) [I-125] |
| – | < 10000 nM | Ac-[αAllylPro]DL[B5(4)]DDAAFK[PyrS2(6)][3Thi][Bta][GlnR]-NH2 (bridge 10-14; not fully specified (bridges); printed as Ac-PL3-Asp-Leu-B5-Asp-Asp-Ala-Ala-Phe-Lys*3-PyrS2-3Thi-BztA-GlnR*3-NH2; reading uncertain) [I-3] |

Target: beta-catenin (human)
Experiment: fluorescence polarization

| Binder | IC50 |
| --- | --- |
| XDQXDXKAFKXXXQA (not fully specified; Ac-PL3-Asp-GlnR**3-B5-Asp-3COOHF-Lys**3-Ala-Phe-Lys*3-PyrS2-3Thi-BztA-GlnR*3-Ala-NH2) [I-78] | < 50 nM |
| Ac-[αAllylPro]D[tBuAla][B5(5)]D[Phe(3-COOH)]KAFL[PyrS2(5)][3Thi][Bta]K-NH2 (not fully specified (residues 6, 7, bridges); printed as Ac-PL3-Asp-Npg-B5-Asp-3COOHF-[Me2Mal]-Lys-Ala-Phe-Leu-PyrS2-3Thi-BztA-Lys-NH2) [I-47] | < 50 nM |
| Ac-[PL3]N[tBuAla][B5]D[Phe(3-COOH)]SAFK[PyrS2″][3Thi][BztA][GlnR]A-NH2 (staple 1-4 (inferred); bridge 10-14; not fully specified (residue 10, bridges); printed as Ac-PL3-Asn-Npg-B5-Asp-3COOHF-Ser-Ala-Phe-Lys*3-PyrS2-3Thi-BztA-GlnR*3-Ala-NH2; reading uncertain) [I-84] | < 50 nM |
| Ac-[αAllylPro]D[tBuAla][B5(4)]D[TfeGA]VAFK[PyrS2″][2F3MeF][Bta][GlnR]A-NH2 (bridge 10-14; not fully specified (bridges); reading uncertain; also: Lys*3 and GlnR*3 marked *3) [I-124] | < 50 nM |
| Ac-[αAllylPro]D[tBuAla][B5(5)]D[Phe(3-COOH)]AAF[AsnR][PyrS2(5)][3Thi][Bta][Orn]-NH2 (bridge 10-14; reading uncertain; also: PL3/B5/PyrS2 staple links not placed, printed as Ac-PL3-Asp-Npg-B5-Asp-3COOHF-Ala-Ala-Phe-AsnR*3-PyrS2-3Thi-BztA-Orn*3-NH2) [I-40] | > 1000 nM |
| Ac-[αAllylPro]D[tBuAla][B5(5)]D[Phe(3-COOH)]KAFL[PyrS2(5)][3Thi][Bta]K-NH2 (not fully specified (residues 6, 7, bridges); printed as Ac-PL3-Asp-Npg-B5-Asp-3COOHF-[succinate]-Lys-Ala-Phe-Leu-PyrS2-3Thi-BztA-Lys-NH2) [I-46] | < 50 nM |
| Ac-[PL3]D[tBuAla][B5(4)]D[Phe(3-COOH)]AAF[TriAzLys″][PyrS2″][3Thi][Bta][sAla]-NH2 (triazole 10-14; not fully specified (bridges); printed as Ac-PL3-Asp-Npg-B5-Asp-3COOHF-Ala-Ala-Phe-TriAzLys*3-PyrS2-3Thi-BztA-sAla*3-NH2; reading uncertain) [I-20] | < 50 nM |
| Ac-[αAllylPro]D[tBuAla][B5(3)]D[Phe(3-COOH)][Nle]AFK[PyrS2(3)][3Thi][Bta][GlnR]A-NH2 (bridge 10-14; not fully specified (bridges); printed as Ac-PL3-Asp-Npg-B5-Asp-3COOHF-nLeu-Ala-Phe-Lys*3-PyrS2-3Thi-BztA-GlnR*3-Ala-NH2; reading uncertain) [I-70] | < 50 nM |
| Ac-[αAllylPro]N[tBuAla][B5(4)]D[Phe(3-COOH)]AAFK[PyrS2(6)][3Thi][Bta][GlnR]A-NH2 (staple 1-4 (inferred); bridge 10-14; not fully specified (residue 10, bridges); printed as Ac-PL3-Asn-Npg-B5-Asp-3COOHF-Ala-Ala-Phe-Lys*3-PyrS2-3Thi-BztA-GlnR*3-Ala-NH2; reading uncertain) [I-80] | < 50 nM |
| Ac-[PL3]D[tBuAla][B5(4)]D[Phe(3-COOH)]AAF[TriAzLys″][PyrS2″][2F3MeF][Bta][sAla]-NH2 (triazole 10-14; not fully specified (bridges); printed as Ac-PL3-Asp-Npg-B5-Asp-3COOHF-Ala-Ala-Phe-TriAzLys*3-PyrS2-2F3MeF-BztA-sAla*3-NH2; reading uncertain) [I-22] | < 50 nM |
| Ac-[PL3]N[tBuAla][B5]D[Phe(3-COOH)]QAFK[PyrS2″][3Thi][BztA][GlnR]A-NH2 (staple 1-4 (inferred); bridge 10-14; not fully specified (residue 10, bridges); printed as Ac-PL3-Asn-Npg-B5-Asp-3COOHF-Gln-Ala-Phe-Lys*3-PyrS2-3Thi-BztA-GlnR*3-Ala-NH2; reading uncertain; also: Lys10 and GlnR14 marked *3) [I-88] | < 50 nM |
| Ac-[αAllylPro]D[tBuAla][B5]D[Phe(3-COOH)][Aib]AFK[PyrS2][3Thi][Bta][GlnR]A-NH2 (staple 1-4, 4-11; lactam 10-14; not fully specified; printed as Ac-PL3-Asp-Npg-B5-Asp-3COOHF-Aib-Ala-Phe-Lys*3-PyrS2-3Thi-BztA-GlnR*3-Ala-NH2; reading uncertain) [I-67] | < 50 nM |
| XDQXDXKAFKXXXQA (not fully specified; Ac-PL3-Asp-GlnR**3-B5-Asp-3COOHF-Lys**3-Ala-Phe-Lys*3-PyrS2-3Thi-BztA-GlnR*3-Ala-NH2) [I-74] | < 50 nM |
| Ac-[αAllylPro]D[tBuAla][B5(4)]D[TfeGA]LAFK[PyrS2″][2F3MeF][Bta][GlnR]A-NH2 (bridge 10-14; not fully specified (bridges); reading uncertain; also: Lys*3 and GlnR*3 marked *3) [I-122] | < 50 nM |
| Ac-[αAllylPro]D[tBuAla][B5(4)]D[Phe(3-COOH)]KAFL[PyrS2(6)][3Thi][Bta]K-NH2 (not fully specified (residues 6, 7, bridges); printed as Ac-PL3-Asp-Npg-B5-Asp-3COOHF-[diphenate]-Lys-Ala-Phe-Leu-PyrS2-3Thi-BztA-Lys-NH2) [I-48] | < 50 nM |
| Ac-[αAllylPro]D[tBuAla][B5(5)]D[Phe(3-COOH)]KAFL[PyrS2(5)][3Thi][Bta]K-NH2 (not fully specified (residue 6); printed as Ac-PL3-Asp-Npg-B5-Asp-3COOHF-[isophthalate]-Lys-Ala-Phe-Leu-PyrS2-3Thi-BztA-Lys-NH2; also: isophthalate unit next to Lys7, attachment not given here, PL3/B5/PyrS2 staple links not placed) [I-45] | < 50 nM |

Second part, the binder after the results:

| IC50 | Binder |
| --- | --- |
| < 50 nM | Ac-[αAllylPro]D[tBuAla][B5(4)]D[Phe(3-COOH)]AAFK[PyrS2(6)][2F3MeF(4)][Bta][GlnR]A-NH2 (staple 1-4 (inferred); bridge 10-14; not fully specified (residue 10, bridges); printed as Ac-PL3-Asp-Npg-B5-Asp-3COOHF-Ala-Ala-Phe-Lys*3-PyrS2-2F3MeF-BztA-GlnR*3-Ala-NH2; reading uncertain; also: -CH=CH- in each staple reduced to -CH2-CH2-) [I-77] |
| < 50 nM | Ac-[αAllylPro]D[tBuAla][B5(3)]D[Phe(3-COOH)][Aib]AFK[PyrS2(3)][2F3MeF″][Bta][GlnR]A-NH2 (bridge 10-14; not fully specified (bridges); printed as Ac-PL3-Asp-Npg-B5-Asp-3COOHF-Aib-Ala-Phe-Lys*3-PyrS2-2F3MeF-BztA-GlnR*3-Ala-NH2; reading uncertain) [I-69] |
| < 50 nM | Ac-[αAllylPro]D[tBuAla][B5(4)]D[TfeGA]VAFK[PyrS2″][2F3MeF][Bta][GlnR]A-NH2 (bridge 10-14; not fully specified (bridges); reading uncertain; also: Lys*3 and GlnR*3 marked *3) [I-125] |
| < 50 nM | Ac-[αAllylPro]DL[B5(4)]DDAAFK[PyrS2(6)][3Thi][Bta][GlnR]-NH2 (bridge 10-14; not fully specified (bridges); printed as Ac-PL3-Asp-Leu-B5-Asp-Asp-Ala-Ala-Phe-Lys*3-PyrS2-3Thi-BztA-GlnR*3-NH2; reading uncertain) [I-3] |
| < 50 nM | Ac-[PL3]D[tBuAla][B5]N[Phe(3-COOH)]AAFK[PyrS2″][3Thi][BztA][GlnR]A-NH2 (staple 1-4 (inferred); bridge 10-14; not fully specified (residue 10, bridges); printed as Ac-PL3-Asp-Npg-B5-Asn-3COOHF-Ala-Ala-Phe-Lys*3-PyrS2-3Thi-BztA-GlnR*3-Ala-NH2; reading uncertain) [I-82] |
| < 50 nM | Ac-[αAllylPro]D[tBuAla][B5(4)]D[Phe(3-COOH)]K(Suc)AFL[PyrS2(6)][Phe(2-Cl)][Bta]K-NH2 (not fully specified (residue 6, bridges); printed as Ac-PL3-Asp-Npg-B5-Asp-3COOHF-[succinate]-Lys-Ala-Phe-Leu-PyrS2-2ClF-BztA-Lys-NH2) [I-51] |
| < 50 nM | Ac-[αAllylPro]D[tBuAla][B5(3)]D[Phe(3-COOH)]K(Me2Mal)AFL[PyrS2(3)][Phe(2-Cl)][Bta]K-NH2 (not fully specified (residue 6, bridges); printed as Ac-PL3-Asp-Npg-B5-Asp-3COOHF-[Me2Mal]Lys-Ala-Phe-Leu-PyrS2-2ClF-BztA-Lys-NH2) [I-52] |
